Data as given in IntAct's records for PubMed 7973632.

B1: Receptor-like protein kinase 5 (Arabidopsis thaliana (Mouse-ear cress)), P47735 (parent)
chain: MLYCLILLLCLSSTYLPSLSLNQDATILRQAKLGLSDPAQSLSSWSDNNDVTPCKWLGVSCDATSNVVSVDLSSFMLVGPFPSILCHLPSLHSLSLYNNSINGSLSADDFDTCHNLISLDLSENLLVGSIPKSLPFNLPNLKFLEISGNNLSDTIPSSFGEFRKLESLNLAGNFLSGTIPASLGNVTTLKELKLAYNLFSPSQIPSQLGNLTELQVLWLAGCNLVGPIPPSLSRLTSLVNLDLTFNQLTGSIPSWITQLKTVEQIELFNNSFSGELPESMGNMTTLKRFDASMNKLTGKIPDNLNLLNLESLNLFENMLEGPLPESITRSKTLSELKLFNNRLTGVLPSQLGANSPLQYVDLSYNRFSGEIPANVCGEGKLEYLILIDNSFSGEISNNLGKCKSLTRVRLSNNKLSGQIPHGFWGLPRLSLLELSDNSFTGSIPKTIIGAKNLSNLRISKNRFSGSIPNEIGSLNGIIEISGAENDFSGEIPESLVKLKQLSRLDLSKNQLSGEIPRELRGWKNLNELNLANNHLSGEIPKEVGILPVLNYLDLSSNQFSGEIPLELQNLKLNVLNLSYNHLSGKIPPLYANKIYAHDFIGNPGLCVDLDGLCRKITRSKNIGYVWILLTIFLLAGLVFVVGIVMFIAKCRKLRALKSSTLAASKWRSFHKLHFSEHEIADCLDEKNVIGFGSSGKVYKVELRGGEVVAVKKLNKSVKGGDDEYSSDSLNRDVFAAEVETLGTIRHKSIVRLWCCCSSGDCKLLVYEYMPNGSLADVLHGDRKGGVVLGWPERLRIALDAAEGLSYLHHDCVPPIVHRDVKSSNILLDSDYGAKVADFGIAKVGQMSGSKTPEAMSGIAGSCGYIAPEYVYTLRVNEKSDIYSFGVVLLELVTGKQPTDSELGDKDMAKWVCTALDKCGLEPVIDPKLDLKFKEEISKVIHIGLLCTSPLPLNRPSMRKVVIMLQEVSGAVPCSSPNTSKRSKTGGKLSPYYTEDLNSV
partner: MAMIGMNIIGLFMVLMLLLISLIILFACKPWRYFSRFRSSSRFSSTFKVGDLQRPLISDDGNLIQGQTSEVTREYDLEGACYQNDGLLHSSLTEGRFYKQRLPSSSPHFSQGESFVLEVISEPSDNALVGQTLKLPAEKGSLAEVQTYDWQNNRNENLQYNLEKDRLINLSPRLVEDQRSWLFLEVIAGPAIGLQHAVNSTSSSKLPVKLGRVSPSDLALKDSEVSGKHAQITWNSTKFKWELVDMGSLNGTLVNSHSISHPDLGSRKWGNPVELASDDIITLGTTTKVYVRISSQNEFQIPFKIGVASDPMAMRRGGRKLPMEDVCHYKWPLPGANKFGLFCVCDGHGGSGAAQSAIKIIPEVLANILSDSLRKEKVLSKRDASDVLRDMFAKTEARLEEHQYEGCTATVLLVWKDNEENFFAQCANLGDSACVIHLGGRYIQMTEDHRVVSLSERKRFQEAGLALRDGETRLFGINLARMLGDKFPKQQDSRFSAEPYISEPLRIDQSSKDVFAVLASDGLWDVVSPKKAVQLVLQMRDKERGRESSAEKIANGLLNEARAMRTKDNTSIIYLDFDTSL

Variants of: B1
Details: with KAPP

effect of a mutation on the interaction | Variant
disrupting interaction | K711E
